According to patent publication US20240027454:

Legend:
[1] = system: T1, AAPVA-RBB linked to polymer, product of Step A of Example 62 after trifluoroacetic acid treatment
T1 sequence: AAPVX

[2] = system: Fmoc-AAPF-aminoethyl-(Remazol Black B)-(N-acetyl)-ethylamide
[3] = system: T2, AAPVA-RBB linked to poly-(N-acroyl-Boc-Lys-OH)-co-(acroyl-Cys(Trt)-OH)
T2 sequence: AAPVX

CMC 9M31F-AAPF-RBB [4] = system: CMC 9M31F-AAPF-RBB
CMC 9M31F-AAPFA-RBB [5] = system: CMC 9M31F-AAPFA-RBB
[6] = system: T3, 4-([4-(H-Ala-Ala-Pro-Val-Ala)amido N-piperazino]phenyl)-bis-(4-dimethyl-aminophenyl)-carbenium ion
T3 sequence: AAPVX

CMC 9M31F-AAPFA-RBB [7] = molecular target: CMC 9M31F-AAPFA-RBB; remark: listed apart in the source
[8] = molecular target: T4, Fmoc-AAPVAV-{2-hydroxy-3-[1-(5N-RBB-methyl)1,2,3-triazolyl)}propylamide
T4 chain: XAPVAX

[9] = molecular target: AAPVA-RBB Bound to Paper Membrane
[10] = molecular target: Fmoc-AAPV-4-naphthol ester
[11] = molecular target: Fmoc-AAPF-aminoethyl-(Remazol Black B)-(N-acetyl)-ethylamide; remark: listed apart in the source
[12] = molecular target: Fmoc-AAPV-4-methoxy-1-naphthol ester
CMC 9M31F-AAPF-RBB [13] = molecular target: CMC 9M31F-AAPF-RBB; remark: listed apart in the source
H-AAPVAA-RBB = molecular target: T5, H-AAPVAA-RBB
T5 chain: AAPVAX

[14] = molecular target: T6, Fmoc-F-V-T(Bzl)-F- indoxyl ester (not fully specified)
T6 chain: FVTF

H-AAAPM-RBB = molecular target: T7, H-AAAPM-RBB
T7 chain: AAAPX

Fmoc-APV-Indoxyl ester = molecular target: T8, Fmoc-APV-Indoxyl ester
T8 chain: APV

[15] = molecular target: HEC-EDA-N-propionyl-AAPF-RBB
H-AAPFA-RBB = molecular target: T9, H-AAPFA-RBB
T9 chain: AAPFX

[16] = molecular target: HEC-PEG200-N-propionyl-AAPF-RBB
Fmoc-AAA-indoxyl ester = molecular target: T10, Fmoc-AAA-indoxyl ester
T10 chain: AAA

[17] = molecular target: T11, Poly-co-[(N-mercaptoethyl acrylamide)-(AAAPVV-{RBB}-acrylamide)], procedure b
T11 chain: AAAPVX

[18] = molecular target: T12, AAAPVV-RBB on polyacrylate bound to SiCore Amin beads, procedure f
T12 chain: AAAPVX

[19] = molecular target: T13, AAPVA-RBB linked to polymer, product of Step A of Example 62 after trifluoroacetic acid treatment (not fully specified)
T13 chain: AAPVX

[20] = molecular target: T14, AAAPVV-RBB polyacrylamide with N,N-dioctylamine anchors (not fully specified)
T14 chain: AAAPVX

[21] = molecular target: HEC-EDR176-N-Propionyl-AAPVA-RBB
[22] = molecular target: T15, Poly-co-[(N-mercaptoethyl acrylamide)-(AAAPV-{RBB}-acrylamide)], procedure a (not fully specified)
T15 chain: AAAPX

[23] = molecular target: T16, AAPVA-RBB linked through ethylenediamine-glycyl spacer to polyacrylate (not fully specified)
T16 chain: AAPVX

[24] = molecular target: T17, AAAPV-RBB bound to Beads (Sephabeads ECEP, epoxy activated)
T17 chain: AAAPX

[25] = molecular target: T18, AAAPV-RBB polyacrylamide with N,N-dioctylamine anchors (not fully specified)
T18 chain: AAAPX

[26] = molecular target: T19, Poly-co-[(N-mercaptoethyl acrylamide)-(AAAPV-{RBB}-acrylamide)], procedure b
T19 chain: AAAPX

[27] = molecular target: T20, 4-([4-(H-Ala-Ala-Pro-Val-Ala)amido N-piperazino]phenyl)-bis-(4-dimethyl-aminophenyl)-carbenium ion polyacrylamide (not fully specified)
T20 chain: AAPVX

[28] = molecular target: Fmoc-AAPV-5-Bromo-4-Chloro-Indoxyl ester
[29] = molecular target: T21, AAAPVV-RBB on polyacrylate bound to Chemicell SiCore Amin beads
T21 chain: AAAPVX

[30] = molecular target: Peptide-Labelled beadBALL Amine Microspheres with Long-Chain Linker (PEG(2000)-AAPV-RBB)
[31] = molecular target: T22, AAPVA-RBB linked to poly-(N-acroyl-Boc-Lys-OH)-co-(acroyl-Cys(Trt)-OH)
T22 chain: AAPVX

[32] = molecular target: T23, AAAPVV-RBB linked through Jeffamine EDR 176 to polyacrylate quenched with N,N-dioctyl amine (not fully specified)
T23 chain: AAAPVX

[33] = molecular target: T24, Poly-co-[(N-mercaptoethyl acrylamide)-(AAAPVV-{RBB}-acrylamide)], procedure a
T24 chain: AAAPVX

[34] = molecular target: N-(Propionyl-AAPV-RBB)-Propylamino HEC
[35] = molecular target: T25, AAAPV-RBB linked through Jeffamine EDR 176 to polyacrylate quenched with N,N-dioctyl amine (not fully specified)
T25 chain: AAAPX

[36] = molecular target: Fmoc-AAAPV-(N-acetyl)-indoxyl ester
[37] = molecular target: T26, Non-bead-bound polymeric material of Example 67 (AAAPVV-RBB polyacrylamide quenched with ethanolamine) (not fully specified)
T26 chain: AAAPVX

[38] = molecular target: T27, N-[(3-triethoxysilyl)propyl]-N'-[AAAPVV-RBB]urea bound to silica gel (not fully specified)
T27 chain: XAAPVX

Q: elastase was tested. Which “release of A-RBB, MS-analysis” value [1] did it give?
A: The value was “Treatment with elastase released A-RBB, as found by MS-analysis (m/z=571, negative mode)”.

Q: And the “cleavage, product found by MS” value [2]?
A: Its value is “reaction with elastase to yield the mono-acetylated-Remazol Black B-amino derivative”.

Q: And the “release of Ahx-CV, MS-analysis” value (H-AAPV-Ahx-CV)?
A: Its value is “Treatment of the product of Example 72 with elastase releases no Ahx-CV, as found by MS-analysis (no m/z=526, positive mode)”.

Q: What about the “release of Ala-RBB, MS-analysis” value [3] of the same molecule?
A: The value was “Treatment with elastase released Ala-RBB, as found by MS-analysis (m/z=571, negative mode)”.

Q: What about the “release of the dye, ESI MS” value (CMC 9M31F-AAPF-RBB [4]) of the same molecule?
A: The value was “Reaction with elastase is detected using ESI MS to detect the release of the dye”.

Q: What about the “release of the dye, ESI MS” value (CMC 9M31F-AAPFA-RBB [5]) of the same molecule?
A: The value was “Reaction with elastase was detected using ESI MS to detect the release of the dye”.

Q: And the “release of A-CV, MS-analysis” value [6]?
A: The value was “Treatment of the material with elastase released A-CV, as found by MS-analysis (m/z=484, positive mode)”.

B1: cathepsin G (protein)
chain: IIGGRESRPHSRPYMAYLQIQSPAGQSRCGGFLVREDFVLTAAHCWGSNINVTLGAHNIQRRENTQQHITARRAIRHPQYNQRTIQNDIMLLQLSRRVRRNRNVNPVALPRAQEGLRPGTLCTVAGWGRVSMRRGTDTLREVQLRVQRDRQCLRIFGSYDPRRQICVGDRRERKAAFKGDSGGPLLCNNVAHGIVSYGKSSGVPPEVFTRVSSFLPWIRTTMRS
Q: How did the “Cathepsin Cleavage” value (CMC 9M31F-AAPFA-RBB [7]) turn out when B1 was run?
A: Its value is “++”.

Q: And the “Cathepsin Cleavage” value [8]?
A: The value was 0.

Q: What about the “Cathepsin Cleavage” value [9] of the same molecule?
A: The value was 0.

Q: What about the “Cathepsin Cleavage” value (Fmoc-AAAPM-RBB) of the same molecule?
A: Its value is 0.

Q: What about the “Cathepsin Cleavage” value (Fmoc-AAPA-Indoxyl ester) of the same molecule?
A: The value was 0.

Q: And the “Cathepsin Cleavage” value (Fmoc-AAPF-Indoxyl ester)?
A: Its value is 0.

Q: And the “Cathepsin Cleavage” value (Fmoc-AAAA-Indoxyl ester)?
A: The value was 0.

Q: What about the “Cathepsin Cleavage” value [10] of the same molecule?
A: The value was 0.

Q: What about the “Cathepsin Cleavage” value [11] of the same molecule?
A: Its value is 0.

Q: What about the “Cathepsin Cleavage” value [12] of the same molecule?
A: Its value is 0.

Q: And the “Cathepsin Cleavage” value (CMC 9M31F-AAPF-RBB [13])?
A: Its value is “++”.

Q: What about the “Cathepsin Cleavage” value (H-AAPVAA-RBB) of the same molecule?
A: Its value is 0.

Q: What about the “Cathepsin Cleavage” value [14] of the same molecule?
A: Its value is 0.

Q: And the “Cathepsin Cleavage” value (H-AAAPM-RBB)?
A: Its value is 0.

Q: What about the “Cathepsin Cleavage” value (Fmoc-APV-Indoxyl ester) of the same molecule?
A: The value was 0.

Q: And the “Cathepsin Cleavage” value [15]?
A: Its value is “+”.

Q: What about the “Cathepsin Cleavage” value (H-AAPFA-RBB) of the same molecule?
A: Its value is 0.

Q: And the “Cathepsin Cleavage” value [16]?
A: Its value is “+”.

Q: What about the “Cathepsin Cleavage” value (Fmoc-AAPV-(2-Napthol)) of the same molecule?
A: Its value is 0.

Q: And the “Cathepsin Cleavage” value (Fmoc-AAA-indoxyl ester)?
A: The value was 0.

Q: What about the “Cathepsin Cleavage” value (H-AAPF-RBB) of the same molecule?
A: Its value is 0.

B2: human elastase from leucocytes (protein)
chain: IVGGRRARPHAWPFMVSLQLRGGHFCGATLIAPNFVMSAAHCVANVNVRAVRVVLGAHNLSRREPTRQVFAVQRIFENGYDPVNLLNDIVILQLNGSATINANVQVAQLPAQGRRLGNGVQCLAMGWGLLGRNRGIASVLQELNVTVVTSLCRRSNVCTLVRGRQAGVCFGDSGSPLVCNGLIHGIASFVRGGCASGLYPDAFAPVAQFVNWIDSIIQ
Q: Which “Human Elastase Cleavage” value [17] does the source give for B2 here?
A: The value was “+++”.

Q: And the “Human Elastase Cleavage” value (Fmoc-AAAPV-Indoxylester)?
A: Its value is “++”.

Q: And the “Human Elastase Cleavage” value [18]?
A: Its value is 0.

Q: And the “Human Elastase Cleavage” value [19]?
A: Its value is “++”.

Q: And the “Human Elastase Cleavage” value (Fmoc-AAPA-Indoxyl ester)?
A: Its value is “+++”.

Q: And the “Human Elastase Cleavage” value (Fmoc-AAPF-Indoxyl ester)?
A: Its value is “+”.

Q: What about the “Human Elastase Cleavage” value [20] of the same molecule?
A: The value was “+++”.

Q: What about the “Human Elastase Cleavage” value [21] of the same molecule?
A: Its value is “+++”.

Q: What about the “Human Elastase Cleavage” value (Fmoc-AAAA-Indoxyl ester) of the same molecule?
A: Its value is 0.

Q: And the “Human Elastase Cleavage” value [10]?
A: The value was “+”.

Q: What about the “Human Elastase Cleavage” value (Fmoc-AAAPV-3-Indolamide) of the same molecule?
A: The value was “++”.

Q: What about the “Human Elastase Cleavage” value [22] of the same molecule?
A: The value was “++”.

Q: And the “Human Elastase Cleavage” value (AAPV-RBB-Labelled Silica)?
A: The value was “++”.

Q: And the “Human Elastase Cleavage” value [23]?
A: The value was “+”.

Q: And the “Human Elastase Cleavage” value [24]?
A: The value was 0.

Q: What about the “Human Elastase Cleavage” value (Fmoc-AAPV-Indoxyl ester) of the same molecule?
A: The value was “+++”.

Q: What about the “Human Elastase Cleavage” value [25] of the same molecule?
A: Its value is “++”.

Q: What about the “Human Elastase Cleavage” value [12] of the same molecule?
A: The value was “+”.

Q: What about the “Human Elastase Cleavage” value [26] of the same molecule?
A: The value was “++”.

Q: And the “Human Elastase Cleavage” value [14]?
A: The value was 0.

Q: And the “Human Elastase Cleavage” value [27]?
A: Its value is 0(+).

Q: And the “release of A-CV, mass peak” value [27]?
A: Its value is “Treatment with porcine and human elastase releases A-CV, as proven by the appearance of a mass peak at m/z=484”.

Q: What about the “Human Elastase Cleavage” value [28] of the same molecule?
A: The value was “+++”.

Q: What about the “Human Elastase Cleavage” value [29] of the same molecule?
A: The value was 0.

Q: What about the “Human Elastase Cleavage” value (H-AAAPM-RBB) of the same molecule?
A: The value was “+”.

Q: And the “Human Elastase Cleavage” value [30]?
A: Its value is 0.

Q: And the “Human Elastase Cleavage” value [31]?
A: Its value is “+”.

Q: And the “Human Elastase Cleavage” value [32]?
A: Its value is “+”.

Q: And the “Human Elastase Cleavage” value [33]?
A: The value was “+++”.

Q: And the “Human Elastase Cleavage” value (Fmoc-APV-Indoxyl ester)?
A: Its value is “+”.

Q: And the “Human Elastase Cleavage” value [34]?
A: Its value is “+++”.

Q: And the “Human Elastase Cleavage” value [35]?
A: The value was “+”.

Q: What about the “Human Elastase Cleavage” value [36] of the same molecule?
A: Its value is “++”.

Q: What about the “Human Elastase Cleavage” value (Fmoc-AAPV-(2-Napthol)) of the same molecule?
A: Its value is “+”.

Q: What about the “Human Elastase Cleavage” value [37] of the same molecule?
A: The value was “+++”.

Q: And the “Human Elastase Cleavage” value (Fmoc-AAA-indoxyl ester)?
A: Its value is “++”.

Q: What about the “Human Elastase Cleavage” value [38] of the same molecule?
A: Its value is “+++”.
